This is an account of results in patent US20250101394, “NOVEL CRISPR-CAS12I SYSTEMS AND USES THEREOF” (Huidagene Therapeutics (Singapore) PTE. LTD., published 2025).

Common to all, as to settings: tags: N-term SV40 NLS, C-term NP NLS
The target of series [1] is T1, Cas12Max (xCas12i-N243R, v1.1) (synthetic construct).
T1 chain: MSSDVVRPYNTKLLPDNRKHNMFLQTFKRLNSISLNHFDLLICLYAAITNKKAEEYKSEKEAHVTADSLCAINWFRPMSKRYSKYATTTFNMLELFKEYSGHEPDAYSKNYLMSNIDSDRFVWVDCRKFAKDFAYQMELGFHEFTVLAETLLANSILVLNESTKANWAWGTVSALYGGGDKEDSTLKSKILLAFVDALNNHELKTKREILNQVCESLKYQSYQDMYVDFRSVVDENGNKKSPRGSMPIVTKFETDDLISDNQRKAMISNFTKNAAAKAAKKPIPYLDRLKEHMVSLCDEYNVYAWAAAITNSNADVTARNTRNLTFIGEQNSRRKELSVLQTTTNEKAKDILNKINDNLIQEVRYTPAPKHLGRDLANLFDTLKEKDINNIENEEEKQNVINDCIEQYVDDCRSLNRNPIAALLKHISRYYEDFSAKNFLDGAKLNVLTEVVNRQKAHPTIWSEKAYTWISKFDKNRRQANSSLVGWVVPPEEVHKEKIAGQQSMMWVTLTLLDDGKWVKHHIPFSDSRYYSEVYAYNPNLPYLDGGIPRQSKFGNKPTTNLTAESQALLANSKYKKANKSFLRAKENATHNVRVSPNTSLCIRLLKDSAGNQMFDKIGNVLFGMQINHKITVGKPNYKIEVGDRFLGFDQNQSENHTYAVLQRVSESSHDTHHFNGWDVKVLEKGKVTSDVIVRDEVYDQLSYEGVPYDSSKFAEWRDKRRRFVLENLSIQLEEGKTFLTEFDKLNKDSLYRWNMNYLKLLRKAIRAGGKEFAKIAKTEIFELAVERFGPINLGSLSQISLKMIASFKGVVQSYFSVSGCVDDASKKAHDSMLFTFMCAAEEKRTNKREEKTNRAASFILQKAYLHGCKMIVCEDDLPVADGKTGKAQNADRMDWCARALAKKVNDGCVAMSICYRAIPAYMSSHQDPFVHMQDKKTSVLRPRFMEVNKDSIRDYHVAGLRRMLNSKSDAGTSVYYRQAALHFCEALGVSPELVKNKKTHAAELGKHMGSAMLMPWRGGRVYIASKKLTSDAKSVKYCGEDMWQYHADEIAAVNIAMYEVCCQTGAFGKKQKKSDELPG
The series is described as follows: cell_activity; 5' TTN PAM; EGFP reporter HEK293T.

The next series deals with T2, xCas12i-A165R (synthetic construct, A165R).
T2 chain: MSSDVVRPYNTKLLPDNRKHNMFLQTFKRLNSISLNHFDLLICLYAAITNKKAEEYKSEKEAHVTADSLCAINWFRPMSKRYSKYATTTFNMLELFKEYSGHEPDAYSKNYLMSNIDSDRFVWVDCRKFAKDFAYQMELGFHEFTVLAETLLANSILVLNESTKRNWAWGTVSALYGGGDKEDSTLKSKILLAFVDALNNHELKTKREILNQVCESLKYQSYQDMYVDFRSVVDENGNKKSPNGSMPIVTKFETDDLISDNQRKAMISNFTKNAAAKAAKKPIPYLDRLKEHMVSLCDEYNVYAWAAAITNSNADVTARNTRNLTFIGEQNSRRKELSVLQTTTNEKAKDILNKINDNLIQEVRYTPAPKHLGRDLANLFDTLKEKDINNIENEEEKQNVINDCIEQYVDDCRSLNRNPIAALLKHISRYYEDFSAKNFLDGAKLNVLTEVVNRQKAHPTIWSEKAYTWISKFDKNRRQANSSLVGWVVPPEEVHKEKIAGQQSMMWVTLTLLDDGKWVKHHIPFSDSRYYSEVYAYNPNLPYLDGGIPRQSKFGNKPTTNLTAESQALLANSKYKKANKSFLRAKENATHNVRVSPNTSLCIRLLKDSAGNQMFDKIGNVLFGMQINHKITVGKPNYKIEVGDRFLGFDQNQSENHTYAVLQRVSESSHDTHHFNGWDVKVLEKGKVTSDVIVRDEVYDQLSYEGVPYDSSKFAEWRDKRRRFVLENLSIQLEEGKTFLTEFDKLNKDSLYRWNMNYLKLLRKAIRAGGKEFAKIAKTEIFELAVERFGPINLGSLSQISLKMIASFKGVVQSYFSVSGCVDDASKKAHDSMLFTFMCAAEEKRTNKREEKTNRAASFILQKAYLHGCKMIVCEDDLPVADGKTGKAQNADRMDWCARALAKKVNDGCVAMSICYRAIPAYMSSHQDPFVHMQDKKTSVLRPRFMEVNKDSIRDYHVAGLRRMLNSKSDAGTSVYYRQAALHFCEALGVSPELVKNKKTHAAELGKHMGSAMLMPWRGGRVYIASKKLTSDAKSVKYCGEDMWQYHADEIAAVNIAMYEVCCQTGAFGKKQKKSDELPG
Nature of the series: cell_activity; 5' TTN PAM; EGFP reporter HEK293T.

The target of series [2] is T3, xCas12i (SiCas12i, Cas12i12) (unidentified).
T3 chain: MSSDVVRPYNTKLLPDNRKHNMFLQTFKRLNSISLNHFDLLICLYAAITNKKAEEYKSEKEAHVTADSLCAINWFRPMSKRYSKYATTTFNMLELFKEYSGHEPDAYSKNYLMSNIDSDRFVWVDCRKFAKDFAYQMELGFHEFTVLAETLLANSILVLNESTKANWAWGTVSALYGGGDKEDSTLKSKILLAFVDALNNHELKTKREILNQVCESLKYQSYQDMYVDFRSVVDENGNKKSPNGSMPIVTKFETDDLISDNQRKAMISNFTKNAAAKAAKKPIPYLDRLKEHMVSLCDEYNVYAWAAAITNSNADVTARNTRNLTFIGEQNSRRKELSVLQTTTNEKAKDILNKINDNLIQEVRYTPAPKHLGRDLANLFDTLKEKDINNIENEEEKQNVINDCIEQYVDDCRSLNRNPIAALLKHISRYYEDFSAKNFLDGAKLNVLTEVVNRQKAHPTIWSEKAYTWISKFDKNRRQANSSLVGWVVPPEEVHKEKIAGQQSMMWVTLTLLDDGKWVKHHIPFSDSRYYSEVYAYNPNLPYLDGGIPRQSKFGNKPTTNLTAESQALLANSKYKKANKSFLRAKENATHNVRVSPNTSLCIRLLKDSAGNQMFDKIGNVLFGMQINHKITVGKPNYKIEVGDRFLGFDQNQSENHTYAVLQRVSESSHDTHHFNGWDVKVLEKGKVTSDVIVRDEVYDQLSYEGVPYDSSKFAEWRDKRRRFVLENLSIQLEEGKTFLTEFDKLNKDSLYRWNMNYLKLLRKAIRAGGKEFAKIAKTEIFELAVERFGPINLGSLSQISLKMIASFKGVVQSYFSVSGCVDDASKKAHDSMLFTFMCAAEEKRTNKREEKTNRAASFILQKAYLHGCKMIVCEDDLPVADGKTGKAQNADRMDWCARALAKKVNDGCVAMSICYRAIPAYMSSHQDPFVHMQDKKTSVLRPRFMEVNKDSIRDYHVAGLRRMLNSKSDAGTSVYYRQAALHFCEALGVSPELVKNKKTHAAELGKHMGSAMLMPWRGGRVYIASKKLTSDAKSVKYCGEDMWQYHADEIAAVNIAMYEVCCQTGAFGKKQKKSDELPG
The series is described as follows: cell_activity; 5' TTN PAM; EGFP reporter HEK293T; DR-T1. An excerpt: To vary xCas12i's dsDNA cleavage activity and expand its scope of PAM site recognition, the applicant engineered xCas12i protein via mutagenesis and screened for mutants with higher dsDNA cleavage activity and broader PAM using a dual plasmid fluorescent reporter system similar to the dual plasmid fluorescent reporter system in Example 1, except that the EGxxxxFP-targeting guide RNA (SEQ ID NO: 51; “crON”) coding sequence operably linked to U6 promoter was not located on the expression plasmid together with the xCas12i (or its mutant) coding sequence (SEQ ID NO: 31) but located on the reporter plasmid together with the BFP-P2A-EGxxxxFP coding sequence (SEQ ID NO: 41) (referring to “On-Target Reporter” in FIG. 1B). […] The applicant then individually transfected the expression plasmid and the reporter plasmid into HEK293T cells and analyzed them by FACS (FIG. 1B). […]

B1: crEGFP guide with DR-T1 ; EGxxxxFP insertion target (ssRNA ; dsDNA)
RNA: AUGACUCAGAAAUGUGUCCCCAGUUGACACCCAUUACAGUAGGAGCAUAC
DNA 1: GGATCCGTGTCTTTCCCATTACAGTAGGAGCATACGGGAGACAAGCTTTG
DNA 2: CAAAGCTTGTCTCCCGTATGCTCCTACTGTAATGGGAAAGACACGGATCC
For the molecule B1, the binding signal in series [1] was 3.61 fold of WT; with xCas12i-A165R it was 3.15 fold of WT; in series [2], 1 fold of WT.
